Measurements from the supplement of paper PMC10567573.

B1: ZNF277 (parent)
chain: ILREELQKQRLREILEQQQQERND

Variants of: B1
Assay: protein stability index of a GFP-peptide fusion (GPS, HEK-293T) (PSI 1-6); higher = more stable
Conditions: c terminus: a fixed tail appended
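Note: lentivirally expressed fusions sorted by FACS into six bins by GFP to DsRed ratio, PSI derived from sequencing read proportions per bin multiplied by bin number.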

In order of falling protein stability index:
1. ILREEWQKQRLREILEQQQQERND  5.58
2. ILREEPQKQRLREILEQQQQERND  5.5
3. ILREELQEQRLREILEQQQQERND  5.3
4. ILREELQKQRLTEILEQQQQERND  5.29
5. ILREELEKQRLREILEQQQQERND  5.22
6. ILREELQKQRGREILEQQQQERND  5.22
7. ILREEEQKQRLREILEQQQQERND  5.19
8. ILREELQKQRLREPLEQQQQERND  5.11
9. ILREELQPQRLREILEQQQQERND  5.07
10. ILREELQKQRLREDLEQQQQERND  5.07
11. ILREELGKQRLREILEQQQQERND  5.06
12. ILREELQKQREREILEQQQQERND  5.06
13. ILREELQKQRQREILEQQQQERND  5.05
14. ILREELQKQRLREALEQQQQERND  5.04
15. ILREELPKQRLREILEQQQQERND  5
16. ILREELQQQRLREILEQQQQERND  4.98
17. ILREEKQKQRLREILEQQQQERND  4.96
18. ILREELQKQRHREILEQQQQERND  4.94
19. ILREELQKQRMREILEQQQQERND  4.91
20. ILREEGQKQRLREILEQQQQERND  4.9
21. ILREERQKQRLREILEQQQQERND  4.88
22. ILREELQKQRLREELEQQQQERND  4.85
23. ILREELQKQRLRETLEQQQQERND  4.84
24. ILREELQKQRAREILEQQQQERND  4.83
25. ILREELQGQRLREILEQQQQERND  4.82
26. ILREELQSQRLREILEQQQQERND  4.81
27. ILREELQKQRLREQLEQQQQERND  4.81
28. ILREELQKQRDREILEQQQQERND  4.8
29. ILREEDQKQRLREILEQQQQERND  4.76
30. ILREELQKQRNREILEQQQQERND  4.76
31. ILREETQKQRLREILEQQQQERND  4.75
32. ILREELQKQRLREGLEQQQQERND  4.74
33. ILREELQKQRCREILEQQQQERND  4.71
34. ILREELQAQRLREILEQQQQERND  4.7
35. ILREELQKQRSREILEQQQQERND  4.68
36. ILREELQKQRTREILEQQQQERND  4.66
37. ILREENQKQRLREILEQQQQERND  4.65
38. ILREEVQKQRLREILEQQQQERND  4.65
39. ILREEHQKQRLREILEQQQQERND  4.59
40. ILREELQKQRYREILEQQQQERND  4.58
41. ILREELQKQRLMEILEQQQQERND  4.58
42. ILREEIQKQRLREILEQQQQERND  4.56
43. ILREELQNQRLREILEQQQQERND  4.53
44. ILREELQKQRIREILEQQQQERND  4.52
45. ILREEFQKQRLREILEQQQQERND  4.49
46. ILREELHKQRLREILEQQQQERND  4.47
47. ILREELQKQRLRENLEQQQQERND  4.46
48. ILREESQKQRLREILEQQQQERND  4.44
49. ILREELNKQRLREILEQQQQERND  4.44
50. ILREELQDQRLREILEQQQQERND  4.43
51. ILREELQHQRLREILEQQQQERND  4.41
52. ILREEAQKQRLREILEQQQQERND  4.4
53. ILREELQFQRLREILEQQQQERND  4.38
54. ILREELQKQRPREILEQQQQERND  4.38
55. ILREELQKQRRREILEQQQQERND  4.37
56. ILREELQKQRLREYLEQQQQERND  4.34
57. ILREELQKQRKREILEQQQQERND  4.31
58. ILREELQKQRLREMLEQQQQERND  4.3
59. ILREELDKQRLREILEQQQQERND  4.26
60. ILREELQKQRLREVLEQQQQERND  4.25
61. ILREELCKQRLREILEQQQQERND  4.24
62. ILREEYQKQRLREILEQQQQERND  4.22
63. ILREECQKQRLREILEQQQQERND  4.18
64. ILREELQKQRLRECLEQQQQERND  4.13
65. ILREELQMQRLREILEQQQQERND  4.12
66. ILREELAKQRLREILEQQQQERND  4.12
67. ILREELQYQRLREILEQQQQERND  4.11
68. ILREELSKQRLREILEQQQQERND  4.11
69. ILREELRKQRLREILEQQQQERND  4.1
70. ILREELQKQRFREILEQQQQERND  4.09
71. ILREELQVQRLREILEQQQQERND  4.07
72. ILREELQTQRLREILEQQQQERND  4
73. ILREELQCQRLREILEQQQQERND  3.96
74. ILREELQKQRWREILEQQQQERND  3.94
75. ILREEMQKQRLREILEQQQQERND  3.89
76. ILREELQKQRLREHLEQQQQERND  3.89
77. ILREELQWQRLREILEQQQQERND  3.82
78. ILREELMKQRLREILEQQQQERND  3.74
79. ILREEQQKQRLREILEQQQQERND  3.69
80. ILREELQRQRLREILEQQQQERND  3.66
81. ILREELLKQRLREILEQQQQERND  3.64
82. ILREELQLQRLREILEQQQQERND  3.63
83. ILREELTKQRLREILEQQQQERND  3.62
84. ILREELVKQRLREILEQQQQERND  3.58
85. ILREELQKQRLREKLEQQQQERND  3.53
86. ILREELQKQRLREFLEQQQQERND  3.5
87. ILREELQKQRLRERLEQQQQERND  3.49
88. ILREELKKQRLREILEQQQQERND  3.46
89. ILREELQIQRLREILEQQQQERND  3.1
90. ILREELQKQRLRELLEQQQQERND  3.01
91. ILREELFKQRLREILEQQQQERND  2.93
92. ILREELIKQRLREILEQQQQERND  2.9
93. ILREELQKQRVREILEQQQQERND  2.73
94. ILREELWKQRLREILEQQQQERND  2.37
